Target: T1, soluble recombinant version of the IGLV3-21^R110-harboring B-cell receptor, produced as monomeric human IgM (human)
T1 construct: 170.5 kDa, made by transient expression in 293-HEK cells; It was the analyte in solution in BLI; also called soluble IGLV3-21^R110 B-cell receptor; soluble BCR-fragment
Assay: BLI (Octet)
Experimental: Kinetic assays were performed by first immobilizing the anti IGLV3-21^R110 antibodies onto biosensors through an indirect capturing reagent, anti-human IgG Fc antibody. Anti IGLV3-21^R110 antibodies were loaded at a concentration of 0.01875 μg/ml to generate an anti IGLV3-21^R110 antibody capture level of between 0.30 and 0.34 nm. […] The anti IGLV3-21^R110 antibody capture biosensors were then submerged in wells containing the different concentrations of the soluble BCR-fragment for 900 seconds (association stage) followed by a dissociation step of 1200 seconds in running buffer. Steps were performed at a constant shake speed of 1000 rpm. All reagents were used as described by the manufacturer. Sensorgrams were generated after double reference correction (buffer and blank sensors) to compensate for both the natural dissociation of the capture anti IGLV3-21^R110 antibody and also non-specific binding of the soluble BCR-fragment to the sensor surface. […] (KD) were calculated based on the ratio of association (kₐ) and dissociation rate (kd) constants, obtained by fitting sensorgrams with a first order 1:1 binding model using the Fortebio Data Analysis software (Satorius).
For the KD values of all humanized antibodies, see Table 3.

T1 sequence (heavy, as listed by the source limits assumed, chain 1 of 2): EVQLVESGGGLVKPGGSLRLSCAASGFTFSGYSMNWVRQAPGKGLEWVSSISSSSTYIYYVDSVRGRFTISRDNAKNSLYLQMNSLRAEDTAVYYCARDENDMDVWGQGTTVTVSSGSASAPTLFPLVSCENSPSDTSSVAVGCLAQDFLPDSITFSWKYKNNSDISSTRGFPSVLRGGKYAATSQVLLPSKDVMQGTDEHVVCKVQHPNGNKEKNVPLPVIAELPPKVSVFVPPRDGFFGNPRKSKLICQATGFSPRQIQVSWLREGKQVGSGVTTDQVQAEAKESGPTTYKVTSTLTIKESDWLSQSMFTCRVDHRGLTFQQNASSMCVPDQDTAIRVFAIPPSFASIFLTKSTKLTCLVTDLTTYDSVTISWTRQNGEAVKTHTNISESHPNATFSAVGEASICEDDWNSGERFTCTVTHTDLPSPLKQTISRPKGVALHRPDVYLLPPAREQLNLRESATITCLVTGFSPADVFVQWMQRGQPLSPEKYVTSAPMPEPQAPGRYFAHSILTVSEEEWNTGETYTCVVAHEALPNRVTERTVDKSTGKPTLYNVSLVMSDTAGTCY
T1 sequence (light, as listed by the source limits assumed, chain 2 of 2): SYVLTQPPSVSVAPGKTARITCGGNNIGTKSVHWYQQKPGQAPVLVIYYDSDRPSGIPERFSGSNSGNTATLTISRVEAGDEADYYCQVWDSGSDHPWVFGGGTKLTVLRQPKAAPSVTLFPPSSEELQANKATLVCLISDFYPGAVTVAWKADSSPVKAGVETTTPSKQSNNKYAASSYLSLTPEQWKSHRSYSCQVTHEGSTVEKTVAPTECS

B1: HC7-LC6 (antibody, human IgG1, kappa, V domains shown)
VH: QVQLQESGPGLVKPSETLSLTCTVSGFSLTSYGIHWIRQSPGRGLEWIGVIWRGGGTDSNAAFMSRITISRDTSKTQVSLKLGSVTAADTAIYYCARSRYDEEESMNYWGQGTSVTVSS
VL: EIVLTQSPSSLSASVGDSVTITCRASGNIHSYLAWYQQKPGKAPKLLIYNAKTLADGVPSRFSGSGSGTQYTLTISSLQPEDFATYYCQHFWNTPPTFGAGTKLELKR
notes: Humanized antibody, human IgG1 / kappa
  fold of dissociation constant relative to chimeric antibody HC0-LC0: ≤ 2 fold
